pKd: −log10 of the molar value.
Assays:
FcγRIIIa V158 (human) [1] = molecular target: FcγRIIIa V158 (human) (UniProt P08637); assay: SPR (Biacore 8K), ratio of 1/Kd values
FcγRIIIa F158 (human) [2] = molecular target: FcγRIIIa F158 (human) (UniProt P08637); assay: SPR (Biacore 8K), ratio of 1/Kd values
FcγRIIb = FcγRIIb (UniProt P31994); assay: SPR (Biacore 8K), receptor captured via anti-His antibody
FcγRIIIa V158 (human) [3] = molecular target: FcγRIIIa V158 (human) (UniProt P08637); assay: as above
FcγRIIIa F158 (human) [4] = molecular target: FcγRIIIa F158 (human) (UniProt P08637); assay: as above

Sequence of FcγRIIIa V158 (human) (P08637 17-208 F176V limits assumed): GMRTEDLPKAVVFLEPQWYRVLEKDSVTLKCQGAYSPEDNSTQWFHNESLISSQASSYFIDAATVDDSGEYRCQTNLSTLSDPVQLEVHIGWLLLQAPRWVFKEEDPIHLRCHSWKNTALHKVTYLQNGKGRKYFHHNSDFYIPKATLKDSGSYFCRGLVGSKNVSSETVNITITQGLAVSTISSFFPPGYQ
Sequence of FcγRIIIa F158 (human) (P08637 17-208 limits assumed): as the sequence (P08637 17-208 F176V limits assumed) above, with V160F counted along it
Sequence of FcγRIIb (P31994 46-217 limits assumed): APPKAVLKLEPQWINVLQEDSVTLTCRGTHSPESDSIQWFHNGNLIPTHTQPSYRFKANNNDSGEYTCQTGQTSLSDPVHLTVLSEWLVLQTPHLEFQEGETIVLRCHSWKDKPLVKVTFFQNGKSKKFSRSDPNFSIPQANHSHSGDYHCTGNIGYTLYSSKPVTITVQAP

A/I (V158), affinity towards FcγRIIIa over affinity towards FcγRIIb (FcγRIIIa V158 (human) [1]): 161 | A/I (F158), affinity towards FcγRIIIa over affinity towards FcγRIIb (FcγRIIIa F158 (human) [2]): 32.9 | pKd (FcγRIIb): 4.86 | pKd (FcγRIIIa V158 (human) [3]): 7.06 | pKd (FcγRIIIa F158 (human) [4]): 6.37
Substance: Zolbetuximab (antibody)

— US20240294594A1
